In patent US20190290686A1:

Biological target: T cell receptor of CD8+ T cells from OT1 transgenic mice (ova-specific T cells)
Assay: cell-based or functional assay

expansion of OT1 cells in vivo after a second aAPC dose (FIG. 6): > 200 fold
Substance: H-2Kb SIINFEKL-DBCO-Thiolinker monomer clicked onto azido-labeled murine erythroid cells (from UniProt P01901 22-305) (peptide-MHC)
